Results on four molecules are retold here after patent publication US20130302347A1 (Genentech, published 2013).

The target in assay [1] is T1, TMEM149-Fc (human TMEM149 extracellular domain with C-terminal human IgG1 Fc) (human, UniProt Q9H665 23-160).
T1 construct: also called recombinant human TMEM149-Fc; Fc-TMEM149; not shown: human IgG1 Fc, C-terminal
T1 sequence: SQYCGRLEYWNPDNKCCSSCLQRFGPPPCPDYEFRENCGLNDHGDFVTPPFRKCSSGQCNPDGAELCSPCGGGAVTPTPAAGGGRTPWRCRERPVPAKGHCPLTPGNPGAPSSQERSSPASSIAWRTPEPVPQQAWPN
Kind of assay: SPR, binding to immobilised TMEM149-Fc (7,145 RU per paragraph 67). The protocol: (§1) Surface plasmon resonance (SPR) was run on a BiaCore 3000 (GE healthcare, Piscataway, N.J.) at 25° C. using anti-human IgG F(ab′)₂ (Jackson Immunoresearch, West Grove, Pa.) amine-coupled to BiaCore CM5 sensor chips. For kinetic analysis of protein interactions, Fc-fusion proteins at 25 μg/ml were first captured onto sensor chips by injecting them for 3 min at 5 μl/min. Then, test proteins diluted to their indicated concentrations in HBS-P buffer (0.01 M Hepes, pH 7.4 0.15 M NaCl 0.005% Surfactant P20) were injected for 3 min at 30 μl/min. Dissociation in HBS-P buffer alone was then measured at a flow rate of […]. Sensor chips surfaces were regenerated by injecting 10 mM glycine pH 1.5 for 30 s after each cycle. Kinetic parameters were determined by fitting the data to a 1:1 Langmuir model using the Biacore 3000 evaluation software (GE Healthcare).
For orientation: Surface plasmon resonance follows binding to a sensor surface in real time, without labels.

Assay [2] deals with T1, TMEM149-Fc (human TMEM149 extracellular …). The assay is described as follows: SPR screen of TNF-like ligands. The protocol: as §1

B1: FLAG-IGFL4 (recombinant human IGFL4 with FLAG epitope tag) (ligand, not shown: small tags and cut ends)
chain: EGVTDLRLWLCQPAPRCGEWTYNPLEQCCDDGVILDLNQTRLCGSSCTFWPCFQHCCLESLGSQNQTVVRFKVPGMKPDCKSSPITRICAQEYHPKSPVSRSDLI
For B1, the binding result in assay [1] was “no binding (tested: 108 µg/ml)”.

B2: GITRL (ligand, UniProt Q9UNG2 52-177, looked up)
chain: ETAKEPCMAKFGPLPSKWQMASSEPPCVNKVSDWKLEILQNGLYLIYGQVAPNANYNDVAPFEVRLYKNKDMIQTLTNKSKIQNVGGTYELHVGDTIDLIFNSEHQVLKNNTYWGIILLANPQFIS
Consider B2, for which the binding result in assay [2] is listed as “no binding”.

B3: OX40L (ligand, UniProt P23510 51-183, looked up)
chain: QVSHRYPRIQSIKVQFTEYKKEKGFILTSQKEDEIMKVQNNSVIINCDGFYLISLKGYFSQEVNISLHYQKDEEPLFQLKKVRSVNSLMVASLTYKDKVYLNVTTDNTSLDDFHVNGGELILIHQNPGEFCVL
As for B3, in assay [2], the binding result was “no binding”.

B4: FLAG-IGFL2 (recombinant human IGFL2 with FLAG epitope tag) (ligand, not shown: small tags and cut ends)
chain: PAGSEPWLCQPAPRCGDKIYNPLEQCCYNDAIVSLSETRQCGPPCTFWPCFELCCLDSFGLTNDFVVKLKVQGVNSQCHSSPISSKCESRRRFP
notes: Signal peptide cleavage is predicted only
As to B4, the binding result in assay [1] was “binds”.
